Key:
PP1c (γ1-isoform) = PP1c (γ1-isoform) (Homo sapiens, UniProt P36873); assay: Far Western: GST-GM fusion proteins probed with digoxygenin-labelled PP1γ; format: binding; details: GST-fusion proteins on blot probed with digoxygenin-labelled PP1γ
Description: GST-GM fusion proteins were electrophoresed on 10% SDS/polyacrylamide gels and stained with Coomassie blue (lanes 1-3) or, after transfer to nitrocellulose, probed with digoxygenin-labelled PP1γ (lanes 4-6) as in [9]. Lanes 1 and 4, GST-GM-(E2-D118); Lanes 2 and 5, GST-GM-(H100-P350); Lanes 3 and 6, GST. The positions of the marker proteins glycogen phosphorylase (97 kDa), bovine serum albumin (66 kDa), ovalbumin (43 kDa), carbonic anhydrase (29 kDa) and soybean trypsin inhibitor (20 kDa) are indicated.
The myosin-associated form of PP1 (PP1M) was from chicken gizzard and the glycogen-associated form of PP1 (PP1G) from rabbit skeletal muscle. The β isoform of PP1c was released from PP1G by incubation for 2 hours in 2M LiBr, then purified by gel-filtration on a 30×1 cm column of Superose 12 (Pharmacia, Milton Keynes, U.K.) in the presence of 0.5M LiBr. Glycogen protein particles from rat liver were used as the source of hepatic PP1G Digoxygenin-labelled PP1c (γ1-isoform, hereafter termed PP1) was prepared as in [9]. GL was expressed in E. coli as a glutathione-S-transferase (GST) fusion protein [7], termed GST-GL. The catalytic subunit of PP2A from bovine heart (PP2AC) was provided by Dr R. MacKintosh in this Unit. The phosphorylatable myosin light chain (MLC20) and heavy meromyosin from chicken gizzard were a gift from Dr M. Ikebe (Case Western Reserve University, Cleveland, USA). Thrombin and benzamidine-Agarose were purchased from Sigma (Poole, UK).
The amino acid sequence of rat hepatic GL is 23% identical (39% similar) to residues 1-286 of GM from human skeletal muscle. […] Fusion proteins in which GST was linked to fragments of GM were therefore tested for their ability to bind to PP1c. […] We therefore synthesised GM-(G63-T93) and examined its effect on the enzymatic properties of PP1GL, the form of PP1 associated with rat hepatic protein-glycogen particles.

[1] = tested on: MLC20 and glycogen phosphorylase; assay: MLC20 phosphatase:phosphorylase phosphatase activity ratio of PP1 preparations; format: biochemical
Protocol: The M110 and M21 subunits are marked. The activity ratio, MLC20 phosphatase (MP):phosphorylase phosphatase (PhP) of the two preparations is also shown. Similar results were obtained in three different experiments. The activity ratio MP:PhP of PP1c is 0.07.
^32P-labelled rabbit skeletal muscle phosphorylase a (containing 1.0 mol phosphate per mol subunit) was prepared by phosphorylation with phosphorylase kinase, ^32P-labelled rabbit skeletal muscle glycogen synthase (containing 1.5 mol/mol subunit in the sites 3 region) was prepared by phosphorylation with glycogen synthase kinase-3 [24]). ^32P-labelled chicken gizzard MLC20 and ^32P-labelled chicken gizzard heavy meromyosin (containing 1.0 mol phosphate per mol subunit) were prepared by phosphorylation with smooth muscle myosin light chain kinase. The dephosphorylation of phosphorylase a (10 μM), glycogen synthase (1 μM) and MLC20 (1 μM) and heavy meromyosin (1 μM) was carried out as in [24]. One unit of activity (U) was that amount which released […] of phosphate in one minute.
PP1M (0.01 ml, 0.4U/ml) was dissociated by incubation for 30 minutes with 500 μM arachidonic acid and then for 30 minutes with 0.08 ml of packed Protein G-Sepharose coupled to 0.08 mg of affinity purified anti-M21 antibody. The Protein G-Sepharose was pelleted, and the supernatant diluted at least 15-fold to allow the M110 subunit and PP1c to recombine. […]

M21 subunit = assay: Far Western blotting: interaction with the M21 subunit; format: binding, chicken; details: probe 0.2 μg/ml
M21 subunit, sequence (as listed by the source): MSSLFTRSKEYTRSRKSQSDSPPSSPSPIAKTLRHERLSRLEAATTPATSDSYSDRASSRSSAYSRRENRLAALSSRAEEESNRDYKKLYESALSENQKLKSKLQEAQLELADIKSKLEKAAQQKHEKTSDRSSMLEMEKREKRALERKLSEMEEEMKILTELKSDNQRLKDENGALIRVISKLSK
Protocol: A) PP1M 5 μg (track 1), 10 μg bacterial extract containing M110-(R714-I1004) (track 2), MBP-M110-(R714-I004) 1 μg (track 3), MBP-M110-(R714-L934) 1 μg (track 4), MBP-M110-(K933-I1004) 1 μg (track 5), MBP 1 μg (track 6), M110-(M1-E309) 2 μg (lane 7) and M110-(M1-S477) 2 μg (track 8) were run on a 12% SDS/polyacrylamide gel and stained with Coomassie Blue. B) same as A) except that 10-fold less protein was electrophoresed and after transfer to nitrocellulose the proteins were probed with digoxigenin-labelled M21 subunit (0.2 μg/ml). C) same as B) except that, after electrophoresis, the proteins were transferred to nitrocellulose and probed with digoxigenin-labelled M21-(M1-L146) (0.2 μg/ml).
A) GST-M21 5 μg (track 1), M21 5 μg (track 2), M21-(M1-L146) 5 μg (track 3), M21-(M1-E110) 20 μg (track 4) and M21-(E110-K186) 5 μg (track 5) were run on 16.5% polyacrylamide gels and stained with Coomassie Blue. The marker proteins ovalbumin (43 kDa) and carbonic anhydrase (29 kDa) are indicated. B) GST-M21 0.5 μg (track 1), M21 0.5 μg (track 2), M21-M1-L146) 0.5 μg (track 3), M21-(M1-E110) 5 μg (track 4) and M21-(E110-K186) 5 μg (track 5) were electrophoresed as in A) and after transfer to nitrocellulose the blots were probed with digoxigenin-labelled MBP-M110-(K933-I1004) (0.2 μg/Ml). C) same as B) except that, after electrophoresis, the proteins were transferred to nitrocellulose and probed with digoxigenin-labelled M21 subunit (0.2 μg/ml).
PP1M (0.5 μAg) was electrophoresed on a 12% SDS/polyacrylamide gel, transferred to nitrocellulose and probed with digoxigenin-labelled M21 subunit (0.2 μg/ml) (track 1) or digoxigenin-labelled M21-(M1-L146) (0.2 μg/ml) (track 2). The positions of the M110 subunit, the M21 subunit and PP1c are marked.
Proteins were labelled with digoxigenin and Far Western analyses carried out as described, except that the digoxigenin-labelled probe was used at a concentration of 0.2 μg/ml instead of 2 μg/ml. SDS/polyacrylamide gel electrophoresis was carried out on 7.5-15% gels according to Laemmli and on 16.5% gels according to Schagger and von Jagow. Protein was estimated according to Bradford.

myosin = biological target: T1, myosin (Gallus gallus, UniProt P10587); assay: Myosin binding assay (pelleting with myosin); design: species or system chicken; details: myosin 1 μM, 15 min 0° C.
T1 construct: from tissue; host or cells: chicken gizzard
T1 sequence (P10587 whole entry): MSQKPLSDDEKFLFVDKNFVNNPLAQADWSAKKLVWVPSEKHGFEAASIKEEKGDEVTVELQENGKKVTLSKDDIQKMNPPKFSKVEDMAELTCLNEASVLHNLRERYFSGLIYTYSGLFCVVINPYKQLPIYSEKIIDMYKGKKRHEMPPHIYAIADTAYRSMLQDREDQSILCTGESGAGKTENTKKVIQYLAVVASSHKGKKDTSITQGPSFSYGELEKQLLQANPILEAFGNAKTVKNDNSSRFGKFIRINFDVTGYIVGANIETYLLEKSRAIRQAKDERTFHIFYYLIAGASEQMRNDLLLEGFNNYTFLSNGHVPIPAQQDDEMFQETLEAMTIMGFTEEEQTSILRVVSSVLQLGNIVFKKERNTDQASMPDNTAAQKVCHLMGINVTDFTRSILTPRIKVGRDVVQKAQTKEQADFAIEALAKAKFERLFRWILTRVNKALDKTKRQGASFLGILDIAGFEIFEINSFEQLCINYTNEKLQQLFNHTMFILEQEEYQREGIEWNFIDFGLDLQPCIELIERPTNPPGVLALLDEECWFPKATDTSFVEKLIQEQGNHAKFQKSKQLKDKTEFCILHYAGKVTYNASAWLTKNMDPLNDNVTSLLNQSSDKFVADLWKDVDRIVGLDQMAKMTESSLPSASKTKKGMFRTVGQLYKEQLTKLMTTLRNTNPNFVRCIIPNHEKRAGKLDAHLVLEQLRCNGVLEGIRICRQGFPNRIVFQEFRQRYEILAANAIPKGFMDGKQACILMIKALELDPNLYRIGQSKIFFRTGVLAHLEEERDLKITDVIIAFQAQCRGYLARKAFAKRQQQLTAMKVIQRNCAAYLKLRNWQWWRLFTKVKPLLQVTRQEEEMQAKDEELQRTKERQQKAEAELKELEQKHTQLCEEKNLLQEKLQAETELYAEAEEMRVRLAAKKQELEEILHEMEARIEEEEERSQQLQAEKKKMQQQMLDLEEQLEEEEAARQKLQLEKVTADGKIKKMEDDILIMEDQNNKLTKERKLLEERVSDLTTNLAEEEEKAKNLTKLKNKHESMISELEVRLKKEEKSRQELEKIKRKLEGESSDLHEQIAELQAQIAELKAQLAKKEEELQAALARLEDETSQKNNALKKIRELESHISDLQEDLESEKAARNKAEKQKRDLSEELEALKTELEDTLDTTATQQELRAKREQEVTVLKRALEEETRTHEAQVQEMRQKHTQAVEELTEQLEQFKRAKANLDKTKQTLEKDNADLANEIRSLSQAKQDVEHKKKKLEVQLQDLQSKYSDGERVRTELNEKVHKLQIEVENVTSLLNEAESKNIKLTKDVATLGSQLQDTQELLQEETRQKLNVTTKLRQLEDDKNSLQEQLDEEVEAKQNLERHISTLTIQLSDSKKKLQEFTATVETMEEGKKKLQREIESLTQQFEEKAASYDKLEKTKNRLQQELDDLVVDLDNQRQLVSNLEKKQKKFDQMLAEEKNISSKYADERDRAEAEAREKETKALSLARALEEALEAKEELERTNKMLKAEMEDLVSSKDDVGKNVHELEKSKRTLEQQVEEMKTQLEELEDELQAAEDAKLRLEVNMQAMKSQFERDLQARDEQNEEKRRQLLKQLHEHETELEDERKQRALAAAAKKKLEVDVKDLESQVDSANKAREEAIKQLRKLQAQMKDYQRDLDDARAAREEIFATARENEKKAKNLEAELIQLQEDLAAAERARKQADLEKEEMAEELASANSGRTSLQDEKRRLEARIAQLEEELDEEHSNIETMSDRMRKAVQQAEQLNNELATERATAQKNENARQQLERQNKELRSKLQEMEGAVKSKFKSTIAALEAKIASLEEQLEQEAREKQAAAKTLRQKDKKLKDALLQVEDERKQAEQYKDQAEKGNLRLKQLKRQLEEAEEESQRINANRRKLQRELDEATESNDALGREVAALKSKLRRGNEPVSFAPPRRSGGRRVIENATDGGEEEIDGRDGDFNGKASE
T1 sequence (P02612 whole entry partner): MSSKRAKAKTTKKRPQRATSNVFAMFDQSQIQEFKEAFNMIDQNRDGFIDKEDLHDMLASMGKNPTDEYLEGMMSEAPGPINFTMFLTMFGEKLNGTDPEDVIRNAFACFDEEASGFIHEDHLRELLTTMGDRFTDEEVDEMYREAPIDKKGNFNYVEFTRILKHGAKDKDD
T1 sequence (P02607 whole entry partner): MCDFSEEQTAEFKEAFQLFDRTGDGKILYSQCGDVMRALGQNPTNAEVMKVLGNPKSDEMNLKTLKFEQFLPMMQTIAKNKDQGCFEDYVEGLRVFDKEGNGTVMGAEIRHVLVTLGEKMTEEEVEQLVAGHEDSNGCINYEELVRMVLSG
Protocol: The PP1 catalytic subunit (PP1c), PP1M, or PP1M lacking the M21 subunit, PP1M(ΔM21), each at 30 nM, were incubated for 15 min at 0° C. with 1 μM myosin and centrifuged (see Methods of Example 3). […] The results shown are the average (±S.E.M.) for three separate experiments each assayed in duplicate.
(A); PP1M, M110-(M1-S477) and GST-M110-(M377-K976), each at 30 nM were incubated for 15 min at 0° C. with 1 μM myosin and centrifuged. The supernatants (S), resuspended pellets (P) and the suspension before centrifugation (T, total) were electrophoresed on 12% SDS/polyacrylamide gels, transferred to nitrocellulose and immunoblotted with antibodies raised against the PP1M holoenzyme. No protein was pelleted in the absence of myosin (not shown). The positions of the marker proteins myosin heavy chain (200 kDa), glycogen phosphorylase (97 kDa), bovine serum albumin (66 kDa), ovalbumin (43 kDa), carbonic anhydrase (29 kDa) and soybean trypsin inhibitor (20 kDa) are indicated. (B) The experiments were carried out as in (A), except that the M110 fragments and M21 subunit were used at 100 nM, the 8.5 kDa M110-(K933-I1004) fragment was electrophoresed on a 16.5% polyacrylamide gel and immunoblotting was carried out with affinity purified antibodies (see Methods). A small amount of M110-(R714-I1004) pelleted in the absence of myosin. […] No other protein was pelleted in the absence of myosin.
(A); Myosin (1 μM) was mixed with 50 μM, 20 μM or 10 μM M21 subunit to give the molar ratios M21:myosin dimer indicated. After 15 min at 0° C., the solutions were centrifuged and the supernatants (S), resuspended pellets (P) and the suspension before centrifugation (T, total) were electrophoresed on 12% SDS/polyacrylamide gels and stained with Coomassie blue. The positions of the myosin heavy chain (MHC) and the M21 subunit are indicated. The myosin light chains migrate faster than the M21 subunit and are not visible at these loadings.
Myosin binding assays. Myosin (0.5 mg/ml, 1 μM in terms of myosin heavy chains) in 10 mM Hepes pH 7.5, 50 mM KCl, 5 mM MgCl2, 0.1% (by vol) 2-mercaptoethanol, was mixed with PP1M, M21 subunit, or fragments of the M110 and M21 subunits, at the concentrations indicated in figure legends. After incubation for 15 min at 0° C., the solutions were centrifuged for 2 min at 13,000×g, the supernatants removed, and the pellets washed twice in 10 mM Hepes pH 7.5, 50 mM KCl, 5 mM MgCl2, 0.1% (by vol) 2-mercaptoethanol before resuspension in 50 mM Tris-HCl pH 7.5, 0.1 mM EGTA, 0.03% (by mass) Brij 35, 0.6 M NaCl, 0.1% (by vol) 2-mercaptoethanol. Aliquots of the supernatant, the resuspended pellet and the suspension before centrifugation were either assayed for myosin P-light chain phosphatase activity or denatured in SDS and analysed by SDS/polyacrylamide gel electrophoresis.

PP1c (γ1-isoform), sequence (P36873 whole entry, the tested form may be a part, canonical isoform): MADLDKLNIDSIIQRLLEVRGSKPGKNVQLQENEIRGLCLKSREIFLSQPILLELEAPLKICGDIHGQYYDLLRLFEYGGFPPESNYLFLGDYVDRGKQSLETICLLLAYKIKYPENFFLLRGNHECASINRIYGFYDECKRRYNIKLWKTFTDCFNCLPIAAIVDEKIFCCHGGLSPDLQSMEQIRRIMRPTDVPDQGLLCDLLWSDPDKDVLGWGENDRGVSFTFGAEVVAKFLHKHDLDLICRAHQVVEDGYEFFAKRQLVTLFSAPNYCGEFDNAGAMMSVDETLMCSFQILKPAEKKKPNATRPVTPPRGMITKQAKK

B1: GST-GM-(H100-P350): GST fusion of amino acids 100-350 of human GM (protein)
chain: HTEEYVLAPLFDLPSSKEDLMQQLQIQKAILESTESLLGSTSIKGIIRVLNVSFEKLVYVRMSLDDWQTHYDILAEYVPNSCDGETDQFSFKIVLVPPYQKDGSKVEFCIRYETSVGTFWSNNNGTNYTFICQKKEQEPEPVKPWKEVPNRQIKGCLKVKSSKEESSVTSEENNFENPKNTDTYIPTIICSHEDKEDLEASNRNVKDVNREHDEHNEKELELMINQHLIRTRSTASRDERNTFSTDPVNFP
modifications: left off: a dimerising Fc or GST
notes: GST fusion of amino acids 100-350 of human GM
In the case of B1, the “interaction with PP1 in Far Western experiments” value (PP1c (γ1-isoform)) is reported as “not”.

B2: PP1c: catalytic subunit of PP1 (protein)
chain: ADGELNVDSLITRLLEVRGCRPGKIVQMTEAEVRGLCIKSREIFLSQPILLELEAPLKICGDIHGQYTDLLRLFEYGGFPPEANYLFLGDYVDRGKQSLETICLLLAYKIKYPENFFLLRGNHECASINRIYGFYDECKRRFNIKLWKTFTDCFNCLPIAAIVDEKIFCCHGGLSPDLQSMEQIRRIMRPTDVPDTGLLCDLLWSDPDKDVQGWGENDRGVSFTFGADVVSKFLNRHDLDLICRAHQVVEDGYEFFAKRQLVTLFSAPNYCGEFDNAGGMMSVDETLMCSFQILKPSEKKAKYQYGGLNSGRPVTPPRTANPPKKR
With B2 the “MLC20 phosphatase:phosphorylase phosphatase activity ratio” value [1] was 0.07, the “recognised by digoxigenin-labelled M21 subunit in Far Western blotting” value (M21 subunit) was “not” and the binding to myosin (myosin) was “neither PP1c (FIG. 22) nor bovine serum albumin (data not shown) bound to myosin”.

— patent US6884600B1, “Protein phosphatase-1 catalytic subunit interactions” (Medical Research Council London, priority 1996, dated 2005)
